Assay results: PMC11394972 (International Journal of Molecular Sciences, 2024)

B1: MazF-mt3 (tag-removed form used for crystallization) (enzyme)
chain: GPELMVISRAEIYWADLGPPSGSQPAKRRPVLVIQSDPYNASRLATVIAAVITSNTALAAMPGNVFLPATTTRLPRDSVVNVTAIVTLNKTDLTDRVGEVPASLMHEVDRGLRRVLDL

Experiments:
[1] = target: the molecule itself; experiment: crystal structure
[2] = target: B1; experiment: crystal structure; conditions: both partners purified

Binder	stoichiometry N [1] [subunits in the oligomer]	stoichiometry N [2]
B1	2	
LTGQIDRALESIHGTDEAEALAVANAYRVLETMDDEW [MazE-mt3 (Leu46-Trp82) peptide]		2 toxin chains per antitoxin chain
